# Reference: patent publication US6864363B2 (priority 2000, dated 2005)
# B1: α1-antichymotrypsin: human plasma inhibitor (protein)
# chain: HPNSPLDEENLTQENQDRGTHVDLGLASANVDFAFSLYKQLVLKAPDKNVIFSPLSISTALAFLSLGAHNTTLTEILKGLKFNLTETSEAEIHQSFQHLLRTLNQSSDELQLSMGNAMFVKEQLSLLDRFTEDAKRLYGSEAFATDFQDSAAAKKLINDYVKNGTRGKITDLIKDLDSQTMMVLVNYIFFKAKWEMPFDPQDTHQSRFYLSKKKWVMVPMMSLHHLTIPYFRDEELSCTVVELKYTGNASALFILPDQDKMEEVEAMLLPETLKRWRDSLEFREIGELYLPKFSISRDYNLNDILLQLGIEEAFTSKADLSGITGARNLAVSQVVHKAVLDVFEEGTEASAATAVKITLLSALVETRTIVRFNRPFLMIIVPTDTQNIFFMSKVTNPKQA
# B2: DPP-7: P. gingivalis dipeptidylpeptidase-7, a 76 kDa serine protease purified from the membrane fraction (protein, listed as Porphyromonas gingivalis)
# chain: MQMKLKSILLGAALLLGASGVAKADKGMWLLNELNQENLDRMRELGFTLPLDSLYSFDKPSIANAVVIFGGGCTGITVSDQGLIFTNHHCGYGAIQSQSTVDHDYLRDGFVSRTMGEELPIPGLSVKYLRKIVKVTDKVEGQLKGITDEMERLRKAQEVCQELAKKENADENQLCIVEPFYSNNEYFLIVYDVFKDVRMVFAPPSSVGKFGGDTDNWMWPRHTGDFSVFRVYAGADNRPAEYSKDNKPYKPVYFAAVSMQGYKADDYAMTIGFPGSTDRYLTSWGVEDRIENENNPRIEVRGIKQGIWKEAMSADQATRIKYASKYAQSANYWKNSIGMNRGLARLDVIGRKRAEERAFADWIRKNGKSAVYGDVLSSLEKAYKEGAKANREMTYLSETLFGGTEVVRFAQFANALATNPDAHAGILKSLDDKYKDYLPSLDRKVLPAMLDIVRRRIPADKLPDIFKNVIDKKFKGDTKKYADFVFDKSVVPYSDKFHAMLKSMDKEKFAKAIEKDPAVELSKSVIAAARAIQADAMANAYAIEKGKRLFFAGLREMYPGRALPSDANFTMRMSYGSIKGYEPQDGAWYNYHTTGKGVLEKQDPKSDEFAVQENILDLFRTKNYGRYAENGQLHIAFLSNNDITGGNSGSPVFDKNGRLIGLAFDGNWEAMSGDIEFEPDLQRTISVDIRYVLFMIDKWGQCPRLIQELKLI
# Key:
# Format in all cases: biochemical, Porphyromonas gingivalis
# P. gingivalis DPP-7 [1] = experiment: Endopeptidase activity of DPP-7 on protein substrates and plasma inhibitors
# P. gingivalis DPP-7 [2] = tested on: P. gingivalis DPP-7
# [3] = pH optimum and stability of purified DPP-7 (activity against H-Ala-Phe-pNA)
# Procedure: Kinetic Analysis—Routinely, the dipeptidylpeptidase amidolytic activity was measured with H-Ala-Phe-pNA (1 mM) in 0.2 M HEPES, pH 7.8 at 37° C. The reaction was followed for specific time intervals in a thermostated ELISA reader (SpectraMax, Applied Biosystem) and the release of p-nitroaniline was monitored at 405 nm. Other p-nitroanilide substrates were used in the same manner. For inhibition studies, the enzyme was first preincubated with an inhibitor for 15 minutes at 37° C., substrate added, and residual activity recorded. The initial steady-state velocity (v0) was determined by continuous assay for the range of substrate concentrations (100 nM to 1 mM). Km and Vmax were determined by hyperbolic regression of the kinetic data using the software package Hyper Version 1.02 obtained from Dr. J. S. Easterby (University of Liverpool, UK).
# pH Optimum and Stability—Purified DPP-7 was active against H-Ala-Phe-pNA over a broad pH range, from neutral to basic pH (6.5-9.0) (FIG. 3). This activity also changed with the ionic strength of the buffer, reaching 200% at 0.5 M NaCl concentration in 100 mM HEPES, pH 8.0. DPP-7 was stable in 0.2 M HEPES, pH 8.0, for one week at 4° C. […] After 3 hours incubation at either room temperature or 37° C., activity was reduced to 62% and 20%, respectively. The optimum temperature for the hydrolysis of H-Ala-Phe-pNA was determined to be 43° C.
molecule,measurement,setting,value
gelatin,endopeptidase activity of DPP-7 on protein substrate,P. gingivalis DPP-7 [1],did not show any endopeptidase activity
insulin β chain,endopeptidase activity of DPP-7 on protein substrate,P. gingivalis DPP-7 [1],did not show any endopeptidase activity
B1,inactivation of / influence on DPP-7 activity (in words),P. gingivalis DPP-7 [2],did not effect enzyme activity
B2,optimum temperature for the hydrolysis of H-Ala-Phe-pNA,[3],43 °C
same,stability,"[3]; 0.2 M HEPES, pH 8.0, one week at 4° C.",stable
same,activity with ionic strength of the buffer,"[3]; 0.5 M NaCl in 100 mM HEPES, pH 8.0",200%
same,activity remaining after incubation,[3]; 3 hours at 37° C.,20%
same,activity remaining after incubation,[3]; 3 hours at room temperature,62%
same,"stability, loss of activity",[3]; kept frozen at −80° C. for one month,no appreciable loss of activity
